Values joined by “and” are separate entries in the source; they are usually repeats but may differ in a detail not shown here. Equal entries are not always repeated.
Experiments:
[1] = substrate: NCCCC(=O)O; assay: cells, lysate or membranes; conditions: other: various concentrations of [3H]GABA, 30 seconds; pH 7.4; 37.0 °C
[2] = substrate: NCCS(=O)(=O)O; assay: cells, lysate or membranes; conditions: other: various concentrations of [3H]taurine, 30 seconds, pH 7.4
Experimental: Transient transfections of COS cells with the plasmid pEVJB-rB16a were carried out using DEAE-dextran with DMSO according to the method of Lopata et al. (58) with minor modifications. COS cells were grown (37° C., 5%CO2) in high glucose Dulbecco's modified Eagle medium supplemented with 10% bovine calf serum, 100 U/ml penicillin G, and 100 μg/ml streptomycin sulfate. Cells were routinely used two days after transfection for transport studies.
Plates were incubated at 37° C. for 10 minutes unless indicated otherwise, then washed rapidly 3× with ice cold HBS. Cells were solubilized with 0.05% sodium deoxycholate/0.1N NaOH), an aliquot was neutralized with 1N HCl, and radioactivity was determined by scintillation counting. Protein was quantified in an aliquot of the solubilized cells using a BIO-RAD protein assay kit, according to the manufacturer's directions.

B1: GAT-2 (Rattus norvegicus) (protein)
chain: MDNRVSGTTSNGETKPVCPVMEKVEEDGTLEREQWTNKMEFVLSVAGEIIGLGNVWRFPYLCYKNGGGAFFIPYLIFLFTCGIPVFFLETALGQYTNQGGITAWRKICPIFEGIGYASQMIVSLLNVYYIVVLAWALFYLFSSFTTDLPWGSCSHEWNTENCVEFQKTNNSLNVTSENATSPVIEFWERRVLKISDGIQHLGSLRWELVLCLLLAWIICYFCIWKGVKSTGKVVYFTATFPYLMLVVLLIRGVTLPGAAQGIQFYLYPNITRLWDPQVWMDAGTQIFFSFAICLGCLTALGSYNKYHNNCYRDCVALCILNSSTSFVAGFAIFSILGFMSQEQGVPISEVAESGPGLAFIAYPRAVVMLPFSPLWACCFFFMVVLLGLDSQFVCVESLVTALVDMYPRVFRKKNRREILILIVSVVSFFIGLIMLTEGGMYVFQLFDYYAASGMCLLFVAIFESLCVAWVYGASRFYDNIEDMIGYKPWPLIKYCWLFFTPAVCLATFLFSLIKYTPLTYNKKYTYPWWGDALGWLLALSSMVCIPAWSIYKLRTLKGPLRERLRQLVCPAEDLPQKSQPELTSPATPMTSLLRLTELESNC
Km [1]: 4 µM and 8 ± 3 µM

B2: taurine transporter (rB16a) (Rattus norvegicus) (protein)
chain: MATKEKLQCLKDFHKDILKPSPGKSPGTRPEDEADGKPPQREKWSSKIDFVLSVAGGFVGLGNVWRFPYLCYKNGGGAFLIPYFIFLFGSGLPVFFLEVIIGQYTSEGGITCWEKICPLFSGIGYASIVIVSLLNVYYIVILAWATYYLFQSFQKDLPWAHCNHSWNTPQCMEDTLRRNESHWVSLSAANFTSPVIEFWERNVLSLSSGIDHPGSLKWDLALCLLLVWLVCFFCIWKGVRSTGKVVYFTATFPFAMLLVLLVRGLTLPGAGEGIKFYLYPNISRLEDPQVWIDAGTQIFFSYAICLGAMTSLGSYNKYKYNSYRDCMLLGCLNSGTSFVSGFAIFSILGFMAQEQGVDIADVAESGPGLAFIAYPKAVTMMPLPTFWSILFFIMLLLLGLDSQFVEVEGQITSLVDLYPSFLRKGYRREIFIAIVCSISYLLGLTMVTEGGMYVFQLFDYYAASGVCLLWVAFFECFVIAWIYGGDNLYDGIEDMIGYRPGPWMKYSWAVITPALCVGCFIFSLVKYVPLTYNKVYRYPDWAIGLGWGLALSSMVCIPLVIVILLCRTEGPLRVRIKYLITPREPNRWAVEREGATPFHSRATLMNGALMKPSHVIVETMM
Km [2]: 43 ± 6 µM
